Values joined by “and” are separate entries in the source; they are usually repeats but may differ in a detail not shown here. Identical values can stand only once. Like-named read-outs stand apart in the source and are kept apart here.
Assays:
Assay in all cases: cross-linking; glutaraldehyde cross-linking (0.01-0.5%, 0.025% chosen as optimal) of recombinant p53 in solution without DNA, 25°C, Tris or HEPES buffer pH 7.5, 100 mM NaCl, then 4-12% MOPS SDS-PAGE (coomassie, silver stain or immunoblot)
[1] = biological target: recombinant murine p53 (murine) (UniProt P02340)
[2] = biological target: recombinant murine p53 (murine) (UniProt P02340); remark: listed apart in the source
[3] = biological target: murine p53 mutant with the double substitution M340Q/L344R (murine) (UniProt P02340)

Row | Substance | stoichiometry N [1] | stoichiometry N [2] | stoichiometry N [3]
1 | recombinant murine p53 (from UniProt P02340 1-390) (natural protein) | 8 | 4 | 
2 | murine p53 mutant with the double substitution M340Q/L344R (from UniProt P02340 1-390) (natural protein) |  |  | 2 and 4
